{"source": "patent US20230203138A1", "about": "(TRUSTEES OF COLUMBIA UNIVERSITY IN THE CITY OF NEW YORK, published 2023)", "key": {"[1]": {"target": "SARS-CoV-2 receptor binding domain (RBD) (SARS-CoV-2, UniProt P0DTC2 319-591)", "assay": "ELISA (FIG. 10)"}, "[2]": {"target": "SARS-CoV Spike trimer (SARS-CoV, UniProt P59594 14-1190)", "assay": "SPR (FIG. 37D)"}}}
{"binder": "monoclonal antibody 2-7 (antibody, V domains shown) VH: QITLKESGPTLVKPTQTLTLTCTFSGFSLSTSGVGVGWIRQPPGKALEWLALIYWDDDKRYSPSLKSRLTITKDTSKNQVVLTMTNMDPVDTATYYCAHHKIERIFDYWGQGTLVTVSS VL: QSALAQPASVSGSPGQSITISCTGTSSDVGAYNYVSWYQQHPGKAPKLMIYDVSKRPSGVSNRFSGSKSGNTASLTISGLQAEDEADYYCSSYTTSSTVFGGGTKLTVL", "values": [{"measurement": "binding result", "setting": "[1]", "value": "binds"}]}
{"binder": "monoclonal antibody 1-20 (antibody, V domains shown) VH: EVQLVESGGGLIQPGGSLRLSCAASGLTVSSNYMSWVRQAPGKGLEWVSVIYSGGSTFYADSVKGRFTISRDNSKNTLYLQMNSLRAEDTAVYYCARDLFYYGMDVWGQGTTVTVSS VL: DIQLTQSPSFLSASVGDRVTITCRASQGISSYLAWYQQKPGKAPKLLIYAASTLQSGVPSRFSGSGSGTEFTLTISSLQPEDFATYYCQQLNSYPCFGPGTKVDIK", "values": [{"measurement": "binding result", "setting": "[1]", "value": "binds"}]}
{"binder": "monoclonal antibody 2-30 (antibody, V domains shown) VH: QVQLVESGGGVVQPGRSLRLSCAASGFTFSSYTMHWVRQAPGKGLEWVAAISYDGNNKYYADSVKGRFTISRDNSKNTLYLQMNSLRAEDTAVYYCARSILYGGGMDVWGQGTTVTVSS VL: DIQLTQSPSSLSASVGDRVTITCRASQGISSYLAWYQQKPGQAPKLLIYAASTLQSGVPSRFSGSGSGTDFTLTISSLQPEDFATYYCQQLNSYPLTFGGGTKVEIK", "values": [{"measurement": "binding result", "setting": "[1]", "value": "binds"}]}
{"binder": "monoclonal antibody 4-20 (antibody, V domains shown) VH: QVQLLQSGAEVKKPGASVKVSCKASGYSFTSYYMHWVRQAPGQGLEWMGIINPSGGGTTYAQKFQGRVTMTRDTSTSTVYMELSSLRSEDTAVYYCARPGGGSYQEFDYWGQGTLVTVSS VL: DIQMTQSPSSLSASVGDRVTITCRASQSISSYLNWYQQKPGKAPKLLISAASSLQSGVPSRFSGSGSGTDFTLTISSLQPEDFATYYCQQSYNTLQVTFGGGTKVEIK", "values": [{"measurement": "binding result", "setting": "[1]", "value": "binds"}]}
{"binder": "monoclonal antibody 2-4 (antibody, V domains shown) VH: QVQLVQSGAEVKKPGASVKVSCKASGYTFTGYYMHWVRQAPGQGLEWMGWINPNSGGTNYTQMFQGRVTMTRDTSISTAYMEVSRLRSDDTAVYYCARDRSWAVVYYYMDVWGKGTTVTVSS VL: QSALTQPPSASGSPGQSVTISCTGTSSDVGGYNYVSWYQQHPGKAPKLMIYEVSKRPSGVPDRFSGSKSGNTASLTVSGLQAEDEADYYCSSYAGSNNLVFGGGTKLTVL", "values": [{"measurement": "binding result", "setting": "[2]", "value": "no binding"}]}
